Assay results: patent US20220289791A1 (UNIVERSIT CATHOLIQUE DE LOUVAIN, published 2022)
One block for each binder: values may come before it. *1 amine or outer side, *2 acyl side, *3 side chain or, on linkers, in order; H or OH if unused. Bridges are numbered along the chain shown (N, C = ends). Where no end group is shown, it is not given here. C6F4(1,4-diyl) = Fc1c(F)c([*:2])c(F)c(F)c1[*:1]

Columns and labels:
[1] = biological target: T1, human LDH5, tetramer of human LDHA subunits (human, UniProt P00338 1-332); assay: cell-based or functional assay
[2] = biological target: T2, LDH1, tetramer of full length human LDHB subunits (human, UniProt P07195 2-334); assay: cell-based or functional assay
[3] = biological target: T1, human LDH5, tetramer of human LDHA …; assay: MST on tetrameric LDH5, Kd from red-dye raw fluorescence
[4] = biological target: T2, LDH1, tetramer of full length human …; assay: MST on tetrameric LDH1, 10 to 20 s on time
[5] = biological target: T2, LDH1, tetramer of full length human …; assay: biochemical and biophysical evaluation, not specified further

T2 sequence (P07195 2-334 limits assumed): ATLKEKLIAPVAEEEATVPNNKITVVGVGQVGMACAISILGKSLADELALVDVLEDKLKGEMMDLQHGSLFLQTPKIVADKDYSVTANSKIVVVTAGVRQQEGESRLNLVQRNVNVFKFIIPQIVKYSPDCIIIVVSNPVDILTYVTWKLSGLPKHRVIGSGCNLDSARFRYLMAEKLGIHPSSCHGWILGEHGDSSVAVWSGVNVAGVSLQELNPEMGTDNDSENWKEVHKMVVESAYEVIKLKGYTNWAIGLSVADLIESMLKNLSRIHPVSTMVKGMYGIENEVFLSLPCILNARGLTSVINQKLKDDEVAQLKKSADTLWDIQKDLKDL

EC50 of disruption of the tetrameric state (normalised 350 nm intrinsic fluorescence) [2]: 172 µM
Kd [3]: ~117 µM
Kd [4]: ~380 µM
B1: macrocyclic peptide MP7 (peptide)
peptide: CTLKCKLI-NH2
modifications: linker 1-5 via C6F4(1,4-diyl); N-terminus assumed
SMILES: CC[C@H](C)[C@H](NC(=O)[C@H](CC(C)C)NC(=O)[C@H](CCCCN)NC(=O)[C@@H]1CSc2c(F)c(F)c(c(F)c2F)SC[C@H](N)C(=O)N[C@@H]([C@@H](C)O)C(=O)N[C@@H](CC(C)C)C(=O)N[C@@H](CCCCN)C(=O)N1)C(N)=O
ΔTm, thermal denaturation by nanoDSF, 400 µM MP7 [1]: -5 ° C.
ΔTm, thermal denaturation by nanoDSF, 400 µM MP7 [2]: -1.5 ° C.

binding result [5]: no binding
Binder: ATLKEKLIAPVAEEEATVP-NH2 [LB19, LDHB 19 N-terminal amino acid peptide]
